Residue numbers refer to the chain shown, from its start.
Experiments:
[1] = target: T1, human CDH17, full length, expressed on cells (HEK293-hCDH17); AsPC-1, HCT-8, AGS, LoVo, KATO III, HT-29 tumor … (human, UniProt Q12864 23-832); experiment: flow cytometry, AsPC-1, AGS, KATO III and HT-29 cells
T1 construct: also called human CDH17 expressed on tumor cells
T1 sequence: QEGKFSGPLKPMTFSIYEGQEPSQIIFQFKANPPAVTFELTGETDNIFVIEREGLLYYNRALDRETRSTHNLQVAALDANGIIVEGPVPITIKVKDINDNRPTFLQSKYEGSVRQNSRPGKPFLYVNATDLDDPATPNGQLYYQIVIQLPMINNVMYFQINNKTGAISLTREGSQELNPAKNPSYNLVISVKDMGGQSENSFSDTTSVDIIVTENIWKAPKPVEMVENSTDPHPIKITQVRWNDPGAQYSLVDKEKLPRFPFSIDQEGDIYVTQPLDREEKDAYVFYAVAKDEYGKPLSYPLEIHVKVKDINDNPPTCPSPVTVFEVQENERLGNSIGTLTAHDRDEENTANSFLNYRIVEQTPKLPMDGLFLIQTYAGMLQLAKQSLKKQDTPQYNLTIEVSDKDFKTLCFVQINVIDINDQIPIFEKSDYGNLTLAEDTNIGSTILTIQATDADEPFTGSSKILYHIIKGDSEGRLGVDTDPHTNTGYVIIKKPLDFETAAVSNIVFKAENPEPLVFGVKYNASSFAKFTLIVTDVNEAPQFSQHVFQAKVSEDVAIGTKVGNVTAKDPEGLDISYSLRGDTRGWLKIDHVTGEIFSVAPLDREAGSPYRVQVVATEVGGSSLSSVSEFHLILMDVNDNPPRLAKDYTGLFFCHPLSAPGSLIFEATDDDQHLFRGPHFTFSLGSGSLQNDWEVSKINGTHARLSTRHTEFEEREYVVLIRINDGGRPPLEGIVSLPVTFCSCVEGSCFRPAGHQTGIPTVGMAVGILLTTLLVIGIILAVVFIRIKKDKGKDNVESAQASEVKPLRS

[2] = target: T1, human CDH17, full length, expressed on …; experiment: flow cytometry, AsPC-1 cells
[3] = target: T2, hCDH17-his (full length extracellular domain of human CDH17, Q23-M787, his tag at the C-terminal) (human, UniProt Q12864 23-787); experiment: SPR (Biacore 8K), antibody captured on Protein A chip, hCDH17-his injected
T2 construct: Limits of the construct (UniProt Q12864, Q23-M787, C-terminal his tag); also called human CDH17-his protein; human CDH17 protein
T2 sequence: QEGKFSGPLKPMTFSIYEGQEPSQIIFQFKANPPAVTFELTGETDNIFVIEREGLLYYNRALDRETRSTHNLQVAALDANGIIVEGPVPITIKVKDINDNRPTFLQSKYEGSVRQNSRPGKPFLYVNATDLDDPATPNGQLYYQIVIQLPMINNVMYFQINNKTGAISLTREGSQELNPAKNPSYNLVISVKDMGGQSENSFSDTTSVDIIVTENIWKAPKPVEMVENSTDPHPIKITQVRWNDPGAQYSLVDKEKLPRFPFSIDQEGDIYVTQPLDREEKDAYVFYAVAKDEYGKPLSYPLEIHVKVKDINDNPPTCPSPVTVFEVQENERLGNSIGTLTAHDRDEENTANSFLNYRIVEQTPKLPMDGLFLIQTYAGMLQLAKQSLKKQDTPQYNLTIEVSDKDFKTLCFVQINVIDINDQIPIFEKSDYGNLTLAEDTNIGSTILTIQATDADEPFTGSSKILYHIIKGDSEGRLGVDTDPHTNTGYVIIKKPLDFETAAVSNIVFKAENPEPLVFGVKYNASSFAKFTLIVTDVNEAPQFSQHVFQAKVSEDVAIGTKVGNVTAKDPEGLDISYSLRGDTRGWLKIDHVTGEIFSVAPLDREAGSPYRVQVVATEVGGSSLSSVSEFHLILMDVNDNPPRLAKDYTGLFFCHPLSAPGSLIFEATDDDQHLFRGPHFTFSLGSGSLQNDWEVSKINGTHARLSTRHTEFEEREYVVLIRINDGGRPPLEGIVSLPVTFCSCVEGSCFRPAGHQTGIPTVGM

B1: 29D2D7-z19p3-DXd (antibody, V domains shown)
VH: QVQLVQSGAEVKKPGASVKVSCKASGYTFTDYDMHWVKQAPGQGLEWIGGFDPESAGTVYNLRFKDKATLTADKSTSTAYMELRSLRSEDTAVYYCARKGYYSVSSPFTYWGQGTLVTVSS
VL: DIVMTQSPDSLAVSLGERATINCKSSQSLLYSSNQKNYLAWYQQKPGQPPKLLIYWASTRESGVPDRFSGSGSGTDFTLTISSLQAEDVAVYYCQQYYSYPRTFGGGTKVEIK
modifications: MC-GGFG-DXd (deruxtecan) conjugated to the antibody, DAR around 7.50-7.90; sites not given
notes: also called 29D2D7-z19-MC-GGFG-DXd
binding result [1]: binds

B2: 29H8D3-z3 (antibody, V domains shown)
VH: QVQLVQSGAEVKKPGASVKVSCKASGYTFTDHTIHWVRQAPGQGLEWMGYIYPRDGYTKYNEKFKDRVTMTTDTSTSTAYMELRSLRSDDTAVYYCARFYYGYWYFDVWGQGTTVTVSS
VL: DIVMTQSPLSLPVTPGEPASISCRSSKSLLRSNGNTYLYWFLQKPGQSPQVLIYRMSNLASGVPDRFSGSGSGTDFTLKISRVEAEDVGVYYCMQHLEYPFTFGQGTKLEIK
notes: Humanized variable regions fused to human IgG1 constant region
binding result [2]: binds | binding result [3]: binds

B3: 29H8D3-z6 (antibody, V domains shown)
VH: B2 VH with M48I, V68A
VL: B2 VL
notes: Humanized, human IgG1 constant region
binding result [2]: binds | binding result [3]: binds

B4: 29H8D3-z9 (antibody, V domains shown)
VH: B2 VH with V37M, M48I, V68A
VL: B2 VL
notes: as for B3
binding result [2]: binds | binding result [3]: binds

Source: EP4806514A2 (Lepu Biopharma Co., Ltd., dated 2025)
